According to the RNAGym collection of RNA variant scans (doi:10.7554/elife.80360):

B1: Hammerhead Ribozyme (parent)
chain: ACCGGAUGUGCUUUCCGGUCUGAUGAGUCCGUGAGGACGAAACAG

Variants of: B1
Test: self-cleavage, relative activity (ratio to wild type); higher = more cleavage; co-transcriptional

| Variant | self-cleavage |
| --- | --- |
| ACCGGGUGUGCUUUCCGGUCUGAUAAGUCCGUGAGGACGAAACAG [A6G G25A] | 0.263 |
| ACCGGAUGUGCUUUCCGGUCUGAUGAGUCCGUGAGGACGAAAACG [C43A A44C] | 0.474 |
| ACCGGAUGUGCUUUCCGGGCUGAUUAGUCCGUGAGGACGAAACAG [U19G G25U] | 0.37 |
| ACCGGAUGUGUGUUCCGGUCUGAUGAGUCCGUGAGGACGAAACAG [C11U U12G] | 1.18 |
| ACCGGAUGCGCUUUCCGGUCUGAUGAGUCCGUGAGGACGAAAGAG [U9C C43G] | 0.274 |
| ACCGGAAGUGCUUUCCGGUCUGAUGAGUCUGUGAGGACGAAACAG [U7A C30U] | 1.05 |
| ACCGGAUGUGCUUUCCGGUCUGAUGAGUGCGUGAGUACGAAACAG [C29G G36U] | 1.01 |
| ACCGGAUGUGCCUUCCGGUCUGAUGACUCCGUGAGGACGAAACAG [U12C G27C] | 0.669 |
| ACCGGAUGUGCUUUCCGGGCUGAUGAGUCUGUGAGGACGAAACAG [U19G C30U] | 0.399 |
| ACCGGAUGUGCCUUCCGGUCUGAUGAGUCCAUGAGGACGAAACAG [U12C G31A] | 0.871 |
| ACCGGUUGUGCUUUCCGGUCUGAUGAGUACGUGAGGACGAAACAG [A6U C29A] | 0.475 |
| ACCGGAUGUGCUUUCCGGUCUGAUGAGUCCGUGAGUACGAAACUG [G36U A44U] | 0.379 |
| ACCGCAUGUGCUUUCCGGUCUGAUGAGUCGGUGAGGACGAAACAG [G5C C30G] | 0.314 |
| ACCGGAUGUGCCUUCCGGUCUGAUGAGUACGUGAGGACGAAACAG [U12C C29A] | 0.589 |
| ACCGGAUGUGCUUUCGGGUGUGAUGAGUCCGUGAGGACGAAACAG [C16G C20G] | 0.317 |
| ACCGGAUGUGCUUUCCGGUCUGAGGAGUCCGUGUGGACGAAACAG [U24G A34U] | 0.679 |
| CCCGGAUGUGCUUUCCGGUCUGAUGAGUCCGUGAGGCCGAAACAG [A1C A37C] | 0.404 |
| ACCGGACGUGCUUUCCGGUCUGAUGAGUCCGUGAGAACGAAACAG [U7C G36A] | 0.421 |
| ACCGGAUGUACUUGCCGGUCUGAUGAGUCCGUGAGGACGAAACAG [G10A U14G] | 1.04 |

| Variant | self-cleavage |
| --- | --- |
| ACCGGAUGUGCUUUCCGGUCUGAUGAGUCCGUGAGGACGUAACAA [A40U G45A] | 0.343 |
| ACCGGAUGUGCUUUCCGGUCUGCUGAGUCCGUCAGGACGAAACAG [A23C G33C] | 0.479 |
| ACCGGAUGUGCUUUCCGGUCUGAUGAGUCCAUGAAGACGAAACAG [G31A G35A] | 1.05 |
| ACCGGAUGUACUGUCCGGUCUGAUGAGUCCGUGAGGACGAAACAG [G10A U13G] | 0.956 |
| ACCGGAUGUGCUUUCCGGUCCGAUGAGCCCGUGAGGACGAAACAG [U21C U28C] | 0.977 |
| ACCGGAUGUGCUUUCCGGGCUGAUGAGUCCGUUAGGACGAAACAG [U19G G33U] | 0.411 |
| AACGGAUGUGCUUUCCGGGCUGAUGAGUCCGUGAGGACGAAACAG [C2A U19G] | 0.381 |
| ACCGGAUGUGCUUUCCGGUCUGAUGAGUCCGUCAGGACCAAACAG [G33C G39C] | 0.375 |
| ACCGGAUGUGUUUUCCGGUCUGAUCAGUCCGUGAGGACGAAACAG [C11U G25C] | 0.248 |
| ACGGGAUGUGCUUUCCGGUCUGAUGAGUCCAUGAGGACGAAACAG [C3G G31A] | 0.636 |
| ACCGGAUGUGCUUUCGGGUCUGAUGAGUCAGUGAGGACGAAACAG [C16G C30A] | 0.712 |
| ACCGGAUGUGCUUUCCGGUCUGGGGAGUCCGUGAGGACGAAACAG [A23G U24G] | 0.283 |
| ACCGGAUGUGCUUUCCGGUCUGAUGAGUCCGUGAGGACGAAACGU [A44G G45U] | 1.93 |
| ACCGGAUGUGCUUUCCGGUCUGAUGAGUCCUUGAGGACGCAACAG [G31U A40C] | 0.797 |
| UCCGGACGUGCUUUCCGGUCUGAUGAGUCCGUGAGGACGAAACAG [A1U U7C] | 0.555 |
| UCCGGAUGUGCUUUCCGGGCUGAUGAGUCCGUGAGGACGAAACAG [A1U U19G] | 1.28 |
| ACCGGAUGUGCUUUCCGGUCCGAUGAUUCCGUGAGGACGAAACAG [U21C G27U] | 0.361 |
| ACCGGAUGUGCUUUCCGUUCUGAUGAGACCGUGAGGACGAAACAG [G18U U28A] | 0.461 |
| AACGGAUGUGCUUUUCGGUCUGAUGAGUCCGUGAGGACGAAACAG [C2A C15U] | 0.466 |

| Variant | self-cleavage |
| --- | --- |
| ACCGGUUGAGCUUUCCGGUCUGAUGAGUCCGUGAGGACGAAACAG [A6U U9A] | 0.617 |
| ACCGGAUGGGCUUUCCGGUCUGAUGAGACCGUGAGGACGAAACAG [U9G U28A] | 0.833 |
| AGCGGAUGUGCUUUCCGGUCCGAUGAGUCCGUGAGGACGAAACAG [C2G U21C] | 0.329 |
| GCCGGAUGCGCUUUCCGGUCUGAUGAGUCCGUGAGGACGAAACAG [A1G U9C] | 1.8 |
| ACCGGAUGUGGUUUCCGGUCUGAUGCGUCCGUGAGGACGAAACAG [C11G A26C] | 0.725 |
| GCCGGAUGUGCUUUCCGGUCUGAUGAGUCCGUGAGGACGAAGCAG [A1G A42G] | 0.344 |
| ACCGGAUGUGCUUUCCGGUCUGAUAAGUCCGUGAGGGCGAAACAG [G25A A37G] | 0.351 |
| ACCGGAUGUGCUUUCCGGUCUGAUGAGUCUGUGAGGACGAAACAU [C30U G45U] | 0.981 |
| ACCGGAUGUGCUUUCCGGUCAGAUGACUCCGUGAGGACGAAACAG [U21A G27C] | 0.296 |
| ACCGGAUGUGCUUUCCGGUCUGAUGAGUCCGUGCGGACCAAACAG [A34C G39C] | 0.32 |
| ACCGGAUGUCCUUUCCGGUAUGAUGAGUCCGUGAGGACGAAACAG [G10C C20A] | 0.336 |
| ACCGGAAGUGCUUUCCGGUCUGAUGAGUCCUUGAGGACGAAACAG [U7A G31U] | 1.26 |
| ACCGGAUGUGCUUUCCGGUCUGAUGAGUCCGUGAAGACGAUACAG [G35A A41U] | 0.278 |
| ACCGGAUGUGCUUUUGGGUCUGAUGAGUCCGUGAGGACGAAACAG [C15U C16G] | 0.708 |
| ACCGGAUGUGCUUUCCGGUCUGAUGAGUCCGUGAGGACCAAAUAG [G39C C43U] | 0.368 |
| ACCGCAUGUGCUUUCCGGUCUGAUGAGGCCGUGAGGACGAAACAG [G5C U28G] | 0.345 |
| ACCGGAUCUGCUUUCCGGUCUGAUGAGCCCGUGAGGACGAAACAG [G8C U28C] | 1.16 |
| ACGGGAUGUGCUUUCCGGUCUGAUGAGUCCGGGAGGACGAAACAG [C3G U32G] | 0.36 |
| ACCGGAUGUGCUUUCCGGGCUGAUGAGUCCGUGAGGACGAAAAAG [U19G C43A] | 0.319 |
